The source of these data is patent US20260242735A1 (UNIVERSIT T BASEL, published 2026).

Among the targets are human CD33 H310A (human, UniProt P20138 18-364); human CD33 T284A (human, UniProt P20138 18-364); human CD33 K313A (human, UniProt P20138 18-364); human CD33 L316A (human, UniProt P20138 18-364); human CD33 Q311A (human, UniProt P20138 18-364); human CD33 V267A (human, UniProt P20138 18-364); human CD33 I278A (human, UniProt P20138 18-364); human CD33 V257A (human, UniProt P20138 18-364); human CD33 V294A (human, UniProt P20138 18-364); human CD33 G264A (human, UniProt P20138 18-364); human CD33 G256A (human, UniProt P20138 18-364); human CD33 A261S (human, UniProt P20138 18-364); human CD33 A269S (human, UniProt P20138 18-364); human CD33 R287A (human, UniProt P20138 18-364); human CD33 L275A (human, UniProt P20138 18-364); human CD33 F243A (human, UniProt P20138 18-364); human CD33 K309A (human, UniProt P20138 18-364); human CD33 S248A (human, UniProt P20138 18-364); human CD33 G295A (human, UniProt P20138 18-364); human CD33 A272S (human, UniProt P20138 18-364); human CD33 K283A (human, UniProt P20138 18-364).

Test in all cases: alanine scan, flow cytometry, HEK293-T;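 further: antibody binding to each alanine-substituted CD33 mutant expressed transiently in HEK293-T, read as fluorescence minus background, mean of duplicates, relative to wild-type CD33 set as 100%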
In general terms: Flow cytometry measures light scatter and fluorescence of single cells or particles in a stream.

human CD33 V294A, sequence (P20138 18-364 V294A limits assumed): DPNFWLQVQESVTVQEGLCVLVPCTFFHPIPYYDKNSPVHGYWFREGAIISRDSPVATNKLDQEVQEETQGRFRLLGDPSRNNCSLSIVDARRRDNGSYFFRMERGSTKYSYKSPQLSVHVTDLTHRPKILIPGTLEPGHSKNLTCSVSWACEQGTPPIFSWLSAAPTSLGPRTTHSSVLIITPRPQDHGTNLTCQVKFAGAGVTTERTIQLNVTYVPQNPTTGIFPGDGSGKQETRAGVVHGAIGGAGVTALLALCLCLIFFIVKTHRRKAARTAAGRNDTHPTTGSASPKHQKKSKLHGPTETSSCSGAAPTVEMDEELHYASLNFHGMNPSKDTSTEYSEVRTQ
human CD33 I278A, sequence (P20138 18-364 I278A limits assumed): as the sequence (P20138 18-364 V294A limits assumed) above, with I261A, A277V counted along it
human CD33 G256A, sequence (P20138 18-364 G256A limits assumed): as the sequence (P20138 18-364 V294A limits assumed) above, with G239A, A277V counted along it
human CD33 L275A, sequence (P20138 18-364 L275A limits assumed): as the sequence (P20138 18-364 V294A limits assumed) above, with L258A, A277V counted along it
human CD33 T284A, sequence (P20138 18-364 T284A limits assumed): as the sequence (P20138 18-364 V294A limits assumed) above, with T267A, A277V counted along it
human CD33 Q311A, sequence (P20138 18-364 Q311A limits assumed): as the sequence (P20138 18-364 V294A limits assumed) above, with A277V, Q294A counted along it
human CD33 H310A, sequence (P20138 18-364 H310A limits assumed): as the sequence (P20138 18-364 V294A limits assumed) above, with A277V, H293A counted along it
human CD33 F243A, sequence (P20138 18-364 F243A limits assumed): as the sequence (P20138 18-364 V294A limits assumed) above, with F226A, A277V counted along it
human CD33 A261S, sequence (P20138 18-364 A261S limits assumed): as the sequence (P20138 18-364 V294A limits assumed) above, with A244S, A277V counted along it
human CD33 V257A, sequence (P20138 18-364 V257A limits assumed): as the sequence (P20138 18-364 V294A limits assumed) above, with V240A, A277V counted along it
human CD33 K309A, sequence (P20138 18-364 K309A limits assumed): as the sequence (P20138 18-364 V294A limits assumed) above, with A277V, K292A counted along it
human CD33 L316A, sequence (P20138 18-364 L316A limits assumed): as the sequence (P20138 18-364 V294A limits assumed) above, with A277V, L299A counted along it
human CD33 V267A, sequence (P20138 18-364 V267A limits assumed): as the sequence (P20138 18-364 V294A limits assumed) above, with V250A, A277V counted along it
human CD33 A269S, sequence (P20138 18-364 A269S limits assumed): as the sequence (P20138 18-364 V294A limits assumed) above, with A252S, A277V counted along it
human CD33 K313A, sequence (P20138 18-364 K313A limits assumed): as the sequence (P20138 18-364 V294A limits assumed) above, with A277V, K296A counted along it
human CD33 G264A, sequence (P20138 18-364 G264A limits assumed): as the sequence (P20138 18-364 V294A limits assumed) above, with G247A, A277V counted along it
human CD33 A272S, sequence (P20138 18-364 A272S limits assumed): as the sequence (P20138 18-364 V294A limits assumed) above, with A255S, A277V counted along it
human CD33 K283A, sequence (P20138 18-364 K283A limits assumed): as the sequence (P20138 18-364 V294A limits assumed) above, with K266A, A277V counted along it
human CD33 S248A, sequence (P20138 18-364 S248A limits assumed): as the sequence (P20138 18-364 V294A limits assumed) above, with S231A, A277V counted along it
human CD33 R287A, sequence (P20138 18-364 R287A limits assumed): as the sequence (P20138 18-364 V294A limits assumed) above, with R270A, A277V counted along it
human CD33 G295A, sequence (P20138 18-364 G295A limits assumed): as the sequence (P20138 18-364 V294A limits assumed) above, with A277V, G278A counted along it

B1: Refmab #4 (antibody, V domains shown)
VH: QVQLVQSGAEVKKPGESVKVSCKASGYTFTNYGMNWVKQAPGQGLEWMGWINTYTGEPTYADKFQGRVTMTTDTSTSTAYMEIRNLGGDDTAVYYCARWSWSDGYYVYFDYWGQGTSVTVSS
VL: DIVMTQSPDSLTVSLGERTTINCKSSQSVLDSSTNKNSLAWYQQKPGQPPKLLLSWASTRESGIPDRFSGSGSGTDFTLTIDSPQPEDSATYYCQQSAHFPITFGQGTRLEIK
notes: The alanine scan used IgG or Fab
Turning to B1, the “Mean % WT Binding” value stood at 94.3 % WT binding with human CD33 H310A; 111 % WT binding with human CD33 T284A; 87.7 % WT binding with human CD33 K313A; 80 % WT binding in the experiment with human CD33 L316A; 102 % WT binding in the experiment with human CD33 Q311A; 116 % WT binding with human CD33 V267A. The “Mean % WT Binding” value in the experiment with human CD33 I278A is 116 % WT binding; with human CD33 V257A it was 110 % WT binding; with human CD33 V294A, 97.8 % WT binding; in the experiment with human CD33 G264A it was 89.9 % WT binding; in the experiment with human CD33 G256A it was 104 % WT binding; in the experiment with human CD33 A261S, 65.8 % WT binding. Further, the “Mean % WT Binding” value was 83.6 % WT binding in the experiment with human CD33 A269S; 65.3 % WT binding with human CD33 R287A; 99.3 % WT binding in the experiment with human CD33 L275A; 69.9 % WT binding with human CD33 F243A; 99.9 % WT binding in the experiment with human CD33 K309A; 99.7 % WT binding with human CD33 S248A. Also, the figures for the “Mean % WT Binding” value with human CD33 G295A, in the experiment with human CD33 A272S and in the experiment with human CD33 K283A were 107 % WT binding, 107 % WT binding and 84 % WT binding, respectively.

B2: Refmab #3 (antibody, V domains shown)
VH: QVQLVQSGAEVKKPGSSVKVSCKASGYTFTDYNMHWVRQAPGQGLEWIGYIYPYNGGTGYNQKFKSKATITADESTNTAYMELSSLRSEDTAVYYCARGRPAMDYWGQGTLVTVSS
VL: DIQMTQSPSSLSASVGDRVTITCRASESVDNYGISFMNWFQQKPGKAPKLLIYAASNQGSGVPSRFSGSGSGTDFTLTISSLQPDDFATYYCQQSKEVPWTFGQGTKVEIK
notes: as for B1
B2: the “Mean % WT Binding” value worked out at 101 % WT binding in the experiment with human CD33 H310A; 83.2 % WT binding with human CD33 T284A; 137 % WT binding with human CD33 K313A; 90.4 % WT binding in the experiment with human CD33 L316A; 124 % WT binding in the experiment with human CD33 Q311A; 106 % WT binding with human CD33 V267A. The “Mean % WT Binding” value with human CD33 I278A turned out to be 100 % WT binding; in the experiment with human CD33 V257A it was 89 % WT binding; in the experiment with human CD33 V294A it was 95.8 % WT binding; with human CD33 G264A it was 89 % WT binding; with human CD33 G256A, 94.9 % WT binding; with human CD33 A261S, 121 % WT binding. Besides, the “Mean % WT Binding” value with human CD33 A269S came to 97.4 % WT binding; with human CD33 R287A, 112 % WT binding; with human CD33 L275A, 123 % WT binding; with human CD33 F243A, 107 % WT binding; with human CD33 K309A, 92 % WT binding; with human CD33 S248A, 133 % WT binding. Moreover, the “Mean % WT Binding” value came to 95.8 % WT binding in the experiment with human CD33 G295A, 105 % WT binding with human CD33 A272S and 90.9 % WT binding in the experiment with human CD33 K283A.

B3: Refmab #2 (antibody, V domains shown)
VH: QVQLVQSGAEVKKPGSSVKVSCKASGGTFSDYAISWVRQAPGQGLEWMGRIIPILGVADYAQKFQGRVTITADKSTRTAYMELSSLRSEDTAVYYCARNWADAFDIWGQGTMVTVSS
VL: DIQLTQSPSSLSASVGDRVTITCRASQGISSVLAWYQQKPGKAPKLLIYDASSLESGVPSRFSGSGSGTDFTLTISSLQPEDFATYYCQQFDSSITFGQGTKLEIK
notes: as for B1
Consider B3, for which the “Mean % WT Binding” value amounted to 112 % WT binding with human CD33 H310A; 119 % WT binding with human CD33 T284A; 108 % WT binding in the experiment with human CD33 K313A; 104 % WT binding with human CD33 L316A; 99.5 % WT binding with human CD33 Q311A; 114 % WT binding with human CD33 V267A. Also, the “Mean % WT Binding” value was 106 % WT binding with human CD33 I278A; 108 % WT binding with human CD33 V257A; 105 % WT binding with human CD33 V294A; 105 % WT binding in the experiment with human CD33 G264A; 117 % WT binding with human CD33 G256A; 100 % WT binding with human CD33 A261S. In addition, the “Mean % WT Binding” value with human CD33 A269S was 111 % WT binding; in the experiment with human CD33 R287A, 110 % WT binding; with human CD33 L275A, 115 % WT binding; with human CD33 F243A it was 102 % WT binding; with human CD33 K309A it was 111 % WT binding; with human CD33 S248A, 93.6 % WT binding. In addition, the figures for the “Mean % WT Binding” value with human CD33 G295A, in the experiment with human CD33 A272S and with human CD33 K283A were 110 % WT binding, 110 % WT binding and 102 % WT binding, respectively.
